According to PMC5578738 (2017):

T1: Side-VI (Drosophila, UniProt Q0KI85)
T1 chain: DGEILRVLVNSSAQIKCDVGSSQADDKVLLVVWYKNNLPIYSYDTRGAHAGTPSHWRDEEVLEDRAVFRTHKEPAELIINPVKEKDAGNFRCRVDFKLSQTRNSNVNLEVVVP


Target: T1, Side-VI
Assay: SPR equilibrium, monomer ECD

Row | Kd [nM] | Binder
1 | 2300 | Beat-Vb (protein) LRVTDINVPQIVDFRDNVTLSCSYDISGHTLNSVKWYKNGKEFFRYSPLTPPTYIPFAVEGVQLIDDGNECNESSCRVELNLLGVKSSGVYRCEVSGDAPHFQLTARDANMTVEAL
2 | 760 | Beat-Va (protein) LFVTDISVPEIVDFRDNVTLSCSYDMRGHTLNSVKWYKDHEEFFRYSPLTSPIYMTFDVAGLQVLEGKYVCNESSCRLDLSLQGAKSTGLYKCEVSGDAPHFKLADKADNMTVAA
